± gives the uncertainty stated by the source.

Data on 98 substances can be found in the supplement of paper PMC12042874.

This data set in a line: amyloid nucleation score (Sup35N fusion, yeast selection) (log enrichment); library NNK3; higher = more nucleation; inactive = no reads after selection. In outline:
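Output and input plasmid inserts were sequenced by Illumina after psi-negative yeast carrying Sup35N fused to peptides of 20 random codons had been induced 24 hours with 100 μM copper sulfate and grown 7 days at 30°C on medium lacking adenine and uracil. The nucleation score is the DiMSum log enrichment of output over input reads, centred on the mode score of non-aggregating sequences. Sequences with under 100 input reads were excluded.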
Turning to FNFLPNGWRGKVHIGYYGNT, the amyloid nucleation score entry was “inactive”.
With NGWRCLTVWDLSLYHWGYFL the entry was “inactive”; with FMSSVM, “inactive”.
With CNCVYSSANFCDIMYTNRLG the figure was 1.14 ± 0.085.
With SGSWVNDSESAEDLT the entry was “inactive”; with FQCRYLKHDDKDNYFKGNGK, “inactive”; with PNHYSYQCALLKRSTEFRHA, “inactive”.
Turning to RNKRLKLILYLHRVDEAVAE, the amyloid nucleation score result is “inactive”.
Turning to ITGPTSVYE, the amyloid nucleation score result is “inactive”.
Then YTLRCDFLRNTA, with “inactive”.
For the substance LDRFENINRL, the amyloid nucleation score entry was “inactive”.
With FWKAFRFTDSVFPIKHPNLS the entry was “inactive”; with ESLAWS, “inactive”.
Then APENKVYVRAQVKTACKFRG, with 0.213 ± 0.81.
With AGGAMGVHRCPLLS the entry was “inactive”; with YAGFTQNDNVKLYTGNPFHM, “inactive”.
As to QPAFPWTYVFLLYHGW, the amyloid nucleation score result is “inactive”.
Take PFGPHYNPTM: the amyloid nucleation score entry was “inactive”.
Then SGWLA, with “inactive”; and SVYCCIDKLLHSAKSRLFMM, with “inactive”; and LNMLKVLFSWIRYDGNQ, with “inactive”.
Then DIRYLISSTRYLDVMEGFLV, with “inactive”; and YFTQNSSYVGV, with “inactive”.
With DSIRLLLALPH, the amyloid nucleation score result was “inactive”.
Then SNGLATLSLSWCNCIKGGSL, with 2.9 ± 0.052; and RWQRLSRHGISDSPLAREAA, with -0.917 ± 1.8; and DMMYVIRIFFLATEYSSLHP, with “inactive”.
Turning to IDRFHYSLTTDT, the amyloid nucleation score result is “inactive”.
With RHGLAWTYVKKSKMRTAAGR the entry was “inactive”; with AAYAALQMSK, “inactive”; with SVNNVAWWHYGKMRVNFTFS, -0.552 ± 0.71.
With LFGYDSISLINRGCVGGFNV the entry was “inactive”; with SRYLGKGFVSGTCDVGCGLN, “inactive”; with LHICTLYREVVVAAQCS, “inactive”.
Then IFMITDQ, with “inactive”; and AFVRMLW, with 1.49 ± 0.13.
Turning to VSFMFFACDTFFSHAVIRTR, the amyloid nucleation score entry is “inactive”.
Consider RLYLESVYYFLSRAHRLSID, for which the amyloid nucleation score entry was “inactive”.
Then FSIQSRCAVGWLSIGSVTAR, with “inactive”; and LVEHVEVCVIYCSCDCFSSV, with 1.86 ± 0.059; and HIEFNWPVGLARSWMFCFSH, with “inactive”.
Then LVYREGYIWVMFLIYSFWTV, with “inactive”; and WDNLCGTAFHAVN, with “inactive”.
Then NYVMRILILCSNGWLGRECV, with “inactive”; and FYYWVGFCAGKAEDFRDLLC, with “inactive”.
In the case of GTNWCGIFLNFLLFVML, the amyloid nucleation score entry was “inactive”.
Turning to EGPVSGPC, the amyloid nucleation score entry is “inactive”.
Turning to GLVNVVWMCFLGWPWLKVRS, the amyloid nucleation score entry was “inactive”.
Turning to ITALDWY, the amyloid nucleation score entry is “inactive”.
With LYSCRFMNLKTYLVL the entry was “inactive”; with FGGLWLICSVVYTLNCRSMV, 1.79 ± 0.081; with VLGILYSTE, “inactive”.
Then LCSIVWRGIRDAYGQRYYVV, with “inactive”.
With EYKAPREFPSTNCIHFNLMT the entry was “inactive”; with RYVSSLLSNLRGQKNCVSVL, “inactive”.
Take LFMKSVEMWNRGYLSITCMC: the amyloid nucleation score result was “inactive”.
With WEGRLDCFSMRWLQMLGSND the entry was “inactive”; with GVEMHVFWDLA, “inactive”; with YIIFNFIDFYKPGWGFQWTV, 2.82 ± 0.052.
With RAYSSWSLSSCRCNSDWTVG the entry was “inactive”.
Consider SGVYLSGSSLVCNTFFGTNQ, for which the amyloid nucleation score is 1.78 ± 0.088.
Consider LSYSRTGASC, for which the amyloid nucleation score result is “inactive”.
With AMLLGFLGCGCKLHACCDY the entry was “inactive”; with SLDMYPVVKKCYTYFFFQYF, 1.16 ± 0.11.
Take WYRLRYSQST: the amyloid nucleation score entry was “inactive”.
Then LISINLVQTSPRPRHYYLCS, with “inactive”; and RWSVSSQTMLSIINDISFFG, with 0.099 ± 0.2.
With GNFINHT the entry was “inactive”.
Then AHSRWVSQCDITR, with “inactive”.
Regarding RTKIAFTRVLFATKLWNETN, the amyloid nucleation score entry was “inactive”.
With SIDVLKTNINDIRFVIKIRR the entry was “inactive”; with MNFGFWGTVHWSHASNHVGS, “inactive”.
Then RSLVCRFLTGTDMVCGIGVT, with “inactive”.
Then FSRGVCTSYLSVRYGLCSTE, with “inactive”.
In the case of FVNSRVLWMIKIC, the amyloid nucleation score entry was “inactive”.
Turning to IMVKVW, the amyloid nucleation score result is “inactive”.
Then SPLSRWLVDNTGPLGGSLSR, with “inactive”; and WVQVRRVKIE, with “inactive”.
With IWSLDNARNYSIVRSVWLG the entry was “inactive”.
Then IVLIKSILDANEEGT, with “inactive”.
Substance SRRSMHRVVSHVREGS gave an amyloid nucleation score of -0.164 ± 0.96.
WYALYSIWVKHTHLCERTVE: the amyloid nucleation score result was “inactive”.
For the substance WCPSSSM, the amyloid nucleation score result is “inactive”.
Then SVYGKFILAAVAGLRFGGLK, with “inactive”; and FFASSIYQRALYTVILSSPT, with “inactive”; and CCMLC, with -0.309 ± 1.
With YRSRLYNCFFGQFYMSLTNM the figure was 2.07 ± 0.064; with SFSVPVELSEP, “inactive”; with VSTGTYFSVIKEEVRLGLLH, 0.537 ± 0.36.
With DTNGMMRAMLRYPIIRFLYA the figure was -0.402 ± 0.63.
Regarding PLFGRCHRWGVTMQYSLLIG, the amyloid nucleation score entry is “inactive”.
Take TDFIIRKSYQLLEFYFY: the amyloid nucleation score result was “inactive”.
With RNYNVV the entry was “inactive”; with IKSHVAIDSVPER, “inactive”.
With LRAKTRHSVLNCDRIVEPGG the figure was 1.49 ± 0.13; with YTPRFMISSWVLRDFIHGVS, “inactive”.
Then AGNAFVDR, with “inactive”; and LHMEG, with -0.611 ± 1.1.
